In patent US20040265295A1 (WISCONSIN ALUMNI RESEARCH FOUNDATION, published 2004):
Values belong to the binder of their own block, whether it stands above or below them. Square brackets hold non-standard residues; d marks the D form. Ends that are not written are not given here. pY = N[C@@H](Cc1ccc(OP(=O)(O)O)cc1)C(=O)O; pT = C[C@@H](OP(=O)(O)O)[C@H](N)C(=O)O

Assays:
[1] = target: T1, GST-talin head (human talin1 head region 1-435) (human, UniProt Q9Y490 1-435); assay: GST pull-down competition in vitro; competitor His-β1-integrin tail
T1 construct: The construct is human talin1 head region (1-435) cloned from HEK293T cells; also called wild-type GST-talin; not shown: GST (and further tags) of the pET42 vector
Experimental: (§1) Talin interactions were assessed by GST pull-down using recombinant GST-talin head, His-PIPKIγ635 C-terminus, His-PIPKIγ661 wild-type or Tyr to Phe mutant C-terminus, and His-β1-integrin tail. […] Peptides containing the PIPKIγ661/talin binding sequence (Di Paolo, et al. (2002) supra) were designed to include phosphorylated Tyr⁶⁴⁴₁, phosphorylated Tyr⁶⁴⁹₁ and dual phosphorylated Tyr⁶⁴⁴ and Tyr⁶⁴⁹. The phosphorylated peptides displaced PIPKIγ661 from talin more efficiently than the non-phosphorylated peptide in HEK293T cell lysates.
(§2) Purified GST-talin head proteins were incubated with PIPKIγ661 tails or β1-integrin tail, together with Glutathione SEPHAROSE™ 4 Fast Flow (Amersham Biosciences, Piscataway, N.J.), in Buffer B (PBS, 0.2% NP-40, 2 mM DTT) at 4° C. for 4 hours. The beads were washed three times with Buffer B and analyzed by western blot. For competition assays, GST-talin head proteins were incubated with peptides or competing proteins for 2 hours, then the binding proteins were added and the mixtures were incubated for another 4 hours.

[2] = target: T1, GST-talin head (human talin1 head …); assay: peptide competition of integrin tail (competitor) binding to GST-talin
Experimental: as §2

[3] = target: T2, talin (Homo sapiens (Human), UniProt Q9Y490 1-2541); assay: co-immunoprecipitation with talin
T2 construct: Endogenous talin of HEK293T (and other) cells, detected with anti-talin antibody; also called talin (endogenous, in cell lysates)

[4] = target: T2, talin; assay: peptide displacement of PIPKIγ661 (competitor) from talin in HEK293T cell lysates
Experimental: as §1

[5] = target: tensin (UniProt Q9HBL0 1-1839, limits assumed); assay: co-immunoprecipitation with HA-tagged PIPKIγ661 from HEK 293T cells
Description: (§3) Two approaches were used to identify proteins that specifically interact with PIPKIγ661. […] As numerous focal adhesion proteins are tyrosine phosphorylated, the immunoprecipitates were immunoblotted with anti-phosphotyrosine antibodies. A tyrosine-phosphorylated protein of relative molecular mass 230,000 (Mᵣ 230K) was selectively immunoprecipitated with PIPKIγ661. This protein was identified as talin (Pasquale, et al. (1986) Proc. Natl Acad. Sci. USA 83:5507-5511; DeClue and Martin (1987) Mol. Cell Biol. 7:371-378). […] Only the PIPKIα/γ chimeras that target to focal adhesions associated with talin. To confirm the talin-PIPKIγ661 interaction, talin was immunoprecipitated from HEK293T cells overexpressing PIPKIγ661 or PIPKIγ635. Talin co-precipitated with PIPKIγ661, but not PIPKIγ635. It is known that endogenous PIPKIγ splice isoforms are widely expressed in various cell lines. When endogenous PIPKIγ was immunoprecipitated from a variety of cells types, talin association was consistently observed.
(§4) Immunoprecipitation was performed using standard methods (Zhang, et al. (1997) J. Biol. Chem. 272:17756-17761). […] The immunocomplexes were washed with Buffer A, separated by SDS-polyacrylamide gel electrophoresis (SDS-PAGE), and analyzed as indicated. […]

[6] = target: T3, vinculin (UniProt P18206-2 1-1066, limits assumed); assay: as above
T3 sequence (looked up): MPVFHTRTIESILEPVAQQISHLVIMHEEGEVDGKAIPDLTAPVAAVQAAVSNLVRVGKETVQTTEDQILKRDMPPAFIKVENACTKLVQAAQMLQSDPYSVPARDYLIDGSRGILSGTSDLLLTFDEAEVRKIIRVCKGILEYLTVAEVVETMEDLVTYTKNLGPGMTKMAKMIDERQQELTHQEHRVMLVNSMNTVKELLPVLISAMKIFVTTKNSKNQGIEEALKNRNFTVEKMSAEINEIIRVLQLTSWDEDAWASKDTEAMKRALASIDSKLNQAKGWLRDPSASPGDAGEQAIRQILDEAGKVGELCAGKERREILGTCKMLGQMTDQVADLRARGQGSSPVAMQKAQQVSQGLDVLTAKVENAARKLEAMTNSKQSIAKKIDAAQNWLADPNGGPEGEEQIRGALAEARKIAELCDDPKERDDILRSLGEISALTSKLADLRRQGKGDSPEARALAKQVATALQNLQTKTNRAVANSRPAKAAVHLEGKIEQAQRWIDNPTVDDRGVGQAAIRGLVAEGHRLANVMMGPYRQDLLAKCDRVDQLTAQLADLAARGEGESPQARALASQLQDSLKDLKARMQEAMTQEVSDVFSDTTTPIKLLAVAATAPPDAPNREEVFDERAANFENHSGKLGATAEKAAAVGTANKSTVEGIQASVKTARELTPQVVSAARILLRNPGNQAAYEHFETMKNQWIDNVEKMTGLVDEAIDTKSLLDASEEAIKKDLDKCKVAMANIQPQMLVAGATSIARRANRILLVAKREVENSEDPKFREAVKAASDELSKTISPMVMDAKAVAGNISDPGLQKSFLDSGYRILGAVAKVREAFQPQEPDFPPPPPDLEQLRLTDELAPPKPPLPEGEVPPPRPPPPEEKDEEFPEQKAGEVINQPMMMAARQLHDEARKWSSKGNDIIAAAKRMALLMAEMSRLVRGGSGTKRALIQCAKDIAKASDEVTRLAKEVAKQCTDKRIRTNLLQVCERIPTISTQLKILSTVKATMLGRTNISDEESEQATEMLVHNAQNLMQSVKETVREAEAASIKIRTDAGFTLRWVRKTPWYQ
Description: as §3, §4

[7] = target: T2, talin; assay: co-immunoprecipitation from HEK293T cells in suspension versus adherent to type I collagen
Experimental: The association between PIPKIγ661 and talin was also regulated by adhesion to type I collagen. […] However, in suspended cells, the PIPKIγ661 association with talin was restored when cells were stimulated with lysophosphatidic acid (LPA) or platelet-derived growth factor (PDGF).
Immunoprecipitation was performed using standard methods (Zhang, et al. (1997) J. Biol. Chem. 272:17756-17761). Briefly, transfected HEK293T cells were harvested and lysed in Buffer A (50 mM Tris-HCl, pH 7.5, 150 mM NaCl, 0.1-1.0% NP-40, 5.0 mM NaF, 2 mM Na₃VO₄, 4 mM Na₂P₂O₇, 1 mM EDTA, 0.1 mM EGTA, 1 mM phenylmethyl sulphonyl fluoride (PMSF), 10% glycerol), centrifuged and incubated with protein A-Sepharose and 5 μg anti-HA, anti-c-Myc, anti-Flag, anti-PIPKIγ or anti-talin antibody as indicated at 4° C. for 4 hours to overnight. The immunocomplexes were washed with Buffer A, separated by SDS-polyacrylamide gel electrophoresis (SDS-PAGE), and analyzed as indicated. For the kinase assay, the immunocomplexes were washed and stored in kinase buffer.
The cells were harvested and washed with PBS, and suspended in serum-free DMEM at 37° C. for 1 hour. After stimulation with 10 ng/ml platelet-derived growth factor (PDGF) (R&D Systems Inc., Minneapolis, Minn.), 1 μuM LPA (Sigma, St. Louis) or serum at 37° C. for 15 minutes, cells were lysed as for immunoprecipitation. […]

[8] = target: T2, talin; assay: co-immunoprecipitation of c-Myc-tagged chimeras
Description: as §3, §4

T1 sequence (Q9Y490 1-435): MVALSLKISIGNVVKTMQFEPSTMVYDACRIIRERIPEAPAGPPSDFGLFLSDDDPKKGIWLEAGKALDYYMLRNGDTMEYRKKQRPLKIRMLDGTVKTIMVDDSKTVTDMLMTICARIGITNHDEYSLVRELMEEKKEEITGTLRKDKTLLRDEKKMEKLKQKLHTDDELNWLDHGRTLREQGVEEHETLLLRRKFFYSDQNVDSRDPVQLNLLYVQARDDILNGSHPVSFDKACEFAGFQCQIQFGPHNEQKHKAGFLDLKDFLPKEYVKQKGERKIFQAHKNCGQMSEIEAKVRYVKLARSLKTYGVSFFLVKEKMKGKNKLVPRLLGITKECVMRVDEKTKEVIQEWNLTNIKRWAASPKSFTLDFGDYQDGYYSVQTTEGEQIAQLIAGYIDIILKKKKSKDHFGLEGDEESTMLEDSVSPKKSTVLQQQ
T2 sequence (Q9Y490 other isoform, or with tags, fused parts or gaps limits assumed): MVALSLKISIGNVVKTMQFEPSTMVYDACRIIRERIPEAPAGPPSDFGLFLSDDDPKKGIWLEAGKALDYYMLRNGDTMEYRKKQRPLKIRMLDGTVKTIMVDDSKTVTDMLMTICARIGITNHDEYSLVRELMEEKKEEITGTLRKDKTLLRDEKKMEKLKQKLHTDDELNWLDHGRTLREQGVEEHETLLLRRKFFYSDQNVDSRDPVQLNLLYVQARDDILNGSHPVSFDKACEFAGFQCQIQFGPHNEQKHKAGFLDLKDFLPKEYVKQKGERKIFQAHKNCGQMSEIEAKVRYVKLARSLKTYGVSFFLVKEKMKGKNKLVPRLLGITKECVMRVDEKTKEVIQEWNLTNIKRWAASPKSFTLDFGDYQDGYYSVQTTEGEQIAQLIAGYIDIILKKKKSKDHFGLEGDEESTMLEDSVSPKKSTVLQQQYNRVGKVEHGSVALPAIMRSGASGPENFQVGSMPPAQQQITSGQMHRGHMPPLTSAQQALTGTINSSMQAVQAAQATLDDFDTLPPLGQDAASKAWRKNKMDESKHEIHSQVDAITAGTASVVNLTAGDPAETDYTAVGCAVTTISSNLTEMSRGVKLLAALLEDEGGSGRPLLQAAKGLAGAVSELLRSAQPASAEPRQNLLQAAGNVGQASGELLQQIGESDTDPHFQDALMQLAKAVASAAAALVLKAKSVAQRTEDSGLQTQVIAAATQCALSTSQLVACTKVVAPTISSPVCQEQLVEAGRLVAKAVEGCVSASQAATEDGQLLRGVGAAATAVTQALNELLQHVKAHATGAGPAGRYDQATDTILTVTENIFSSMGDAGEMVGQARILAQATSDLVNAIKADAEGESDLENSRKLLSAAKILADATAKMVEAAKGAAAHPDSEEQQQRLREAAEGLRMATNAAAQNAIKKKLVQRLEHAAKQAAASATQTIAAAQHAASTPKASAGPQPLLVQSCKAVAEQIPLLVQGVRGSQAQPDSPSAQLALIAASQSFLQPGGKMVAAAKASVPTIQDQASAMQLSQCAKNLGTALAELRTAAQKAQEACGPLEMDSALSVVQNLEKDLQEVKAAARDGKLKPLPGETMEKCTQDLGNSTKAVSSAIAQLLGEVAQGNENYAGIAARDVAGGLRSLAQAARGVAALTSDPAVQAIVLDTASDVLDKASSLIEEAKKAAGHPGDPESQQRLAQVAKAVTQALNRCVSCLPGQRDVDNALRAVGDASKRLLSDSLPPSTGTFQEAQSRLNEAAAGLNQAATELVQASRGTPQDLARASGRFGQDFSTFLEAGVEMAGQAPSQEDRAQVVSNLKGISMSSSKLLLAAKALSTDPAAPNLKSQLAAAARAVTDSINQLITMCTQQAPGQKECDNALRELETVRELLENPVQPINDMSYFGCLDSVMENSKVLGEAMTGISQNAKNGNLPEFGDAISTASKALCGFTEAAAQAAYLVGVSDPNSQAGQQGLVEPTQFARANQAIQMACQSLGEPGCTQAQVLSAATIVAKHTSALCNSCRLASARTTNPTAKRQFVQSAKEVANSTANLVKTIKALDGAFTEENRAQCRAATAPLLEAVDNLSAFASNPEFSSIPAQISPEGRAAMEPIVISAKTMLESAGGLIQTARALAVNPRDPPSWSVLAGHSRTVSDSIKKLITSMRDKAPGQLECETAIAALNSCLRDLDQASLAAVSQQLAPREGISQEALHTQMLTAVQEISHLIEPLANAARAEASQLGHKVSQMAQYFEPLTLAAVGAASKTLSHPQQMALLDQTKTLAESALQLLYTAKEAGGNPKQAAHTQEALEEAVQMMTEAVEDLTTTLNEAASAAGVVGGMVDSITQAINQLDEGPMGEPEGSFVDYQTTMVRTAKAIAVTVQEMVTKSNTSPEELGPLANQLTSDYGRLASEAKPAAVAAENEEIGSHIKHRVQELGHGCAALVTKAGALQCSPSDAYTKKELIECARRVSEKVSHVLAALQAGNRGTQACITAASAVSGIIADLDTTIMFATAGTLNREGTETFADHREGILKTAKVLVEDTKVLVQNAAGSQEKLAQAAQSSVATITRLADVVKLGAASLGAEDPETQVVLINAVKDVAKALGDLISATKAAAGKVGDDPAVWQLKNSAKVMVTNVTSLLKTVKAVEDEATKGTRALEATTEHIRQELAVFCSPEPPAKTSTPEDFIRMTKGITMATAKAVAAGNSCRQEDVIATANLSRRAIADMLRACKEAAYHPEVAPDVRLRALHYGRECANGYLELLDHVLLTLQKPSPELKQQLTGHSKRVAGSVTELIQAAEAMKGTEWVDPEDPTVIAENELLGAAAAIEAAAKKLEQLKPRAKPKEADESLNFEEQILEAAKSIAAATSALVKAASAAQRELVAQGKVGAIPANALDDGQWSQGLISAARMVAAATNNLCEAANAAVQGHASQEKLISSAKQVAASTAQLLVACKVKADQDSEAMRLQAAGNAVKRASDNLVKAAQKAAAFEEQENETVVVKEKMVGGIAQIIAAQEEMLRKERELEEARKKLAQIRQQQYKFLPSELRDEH
Chain of tensin (Q9HBL0 whole entry): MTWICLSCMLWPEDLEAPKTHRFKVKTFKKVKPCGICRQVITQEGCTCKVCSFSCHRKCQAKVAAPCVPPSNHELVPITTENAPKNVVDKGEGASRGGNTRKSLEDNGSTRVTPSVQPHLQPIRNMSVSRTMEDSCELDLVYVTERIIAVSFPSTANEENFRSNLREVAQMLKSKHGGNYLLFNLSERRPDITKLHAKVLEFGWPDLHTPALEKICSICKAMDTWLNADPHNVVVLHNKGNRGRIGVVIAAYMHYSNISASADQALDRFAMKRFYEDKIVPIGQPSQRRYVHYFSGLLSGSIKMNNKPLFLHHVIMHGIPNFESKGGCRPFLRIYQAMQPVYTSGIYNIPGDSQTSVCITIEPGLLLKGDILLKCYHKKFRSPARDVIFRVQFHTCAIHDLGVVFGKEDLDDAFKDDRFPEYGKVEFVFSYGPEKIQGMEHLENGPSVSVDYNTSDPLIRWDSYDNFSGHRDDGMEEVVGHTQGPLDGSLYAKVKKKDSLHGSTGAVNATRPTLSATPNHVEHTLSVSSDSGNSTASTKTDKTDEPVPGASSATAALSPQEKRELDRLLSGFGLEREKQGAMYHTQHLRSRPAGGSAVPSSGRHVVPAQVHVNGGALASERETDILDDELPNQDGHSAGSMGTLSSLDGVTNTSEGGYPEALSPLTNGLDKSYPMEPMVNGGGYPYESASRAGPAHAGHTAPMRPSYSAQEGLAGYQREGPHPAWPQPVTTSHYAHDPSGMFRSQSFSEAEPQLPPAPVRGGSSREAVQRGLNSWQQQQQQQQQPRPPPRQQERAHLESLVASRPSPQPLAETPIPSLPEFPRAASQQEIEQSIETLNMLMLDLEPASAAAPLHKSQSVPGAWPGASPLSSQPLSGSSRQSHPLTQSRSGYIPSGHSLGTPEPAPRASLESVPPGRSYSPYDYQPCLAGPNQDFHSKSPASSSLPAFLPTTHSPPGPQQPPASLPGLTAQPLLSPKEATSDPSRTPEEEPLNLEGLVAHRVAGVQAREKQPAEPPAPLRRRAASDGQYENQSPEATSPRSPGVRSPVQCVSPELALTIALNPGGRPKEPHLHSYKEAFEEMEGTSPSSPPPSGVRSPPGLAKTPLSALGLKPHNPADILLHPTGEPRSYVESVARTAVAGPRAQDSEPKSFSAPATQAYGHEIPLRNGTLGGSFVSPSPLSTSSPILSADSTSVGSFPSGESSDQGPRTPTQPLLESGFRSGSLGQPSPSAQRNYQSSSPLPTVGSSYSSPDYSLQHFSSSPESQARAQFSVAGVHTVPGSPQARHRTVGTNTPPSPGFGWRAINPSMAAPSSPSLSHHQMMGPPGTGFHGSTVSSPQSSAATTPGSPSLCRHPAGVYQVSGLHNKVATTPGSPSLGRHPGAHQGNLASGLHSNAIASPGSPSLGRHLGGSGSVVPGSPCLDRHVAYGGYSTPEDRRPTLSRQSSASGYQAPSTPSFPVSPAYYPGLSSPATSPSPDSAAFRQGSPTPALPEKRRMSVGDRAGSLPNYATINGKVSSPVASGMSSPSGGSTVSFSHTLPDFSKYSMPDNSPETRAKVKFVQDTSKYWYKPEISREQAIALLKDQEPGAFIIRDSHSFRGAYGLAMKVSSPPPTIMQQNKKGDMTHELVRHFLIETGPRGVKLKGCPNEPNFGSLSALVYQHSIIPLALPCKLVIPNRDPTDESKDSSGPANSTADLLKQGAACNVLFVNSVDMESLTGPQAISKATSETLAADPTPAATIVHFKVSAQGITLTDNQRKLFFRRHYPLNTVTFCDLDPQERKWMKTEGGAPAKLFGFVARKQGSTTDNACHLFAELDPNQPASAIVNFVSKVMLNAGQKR

fold higher affinity than the non-phosphorylated peptide [1]: 20 fold
B1: PIPKIγ661 peptide pY644/649 (peptide)
peptide: CDERSWV[pY]SPLH[pY]SAR
notes: Synthetic peptide with an added N-terminal Cys; also called dual phosphorylated peptide

binding result [2]: binds
B2: β1-integrin tail peptide β1InpT (peptide)
peptide: CMNAKWD[pT]GENPIYKSA
notes: Synthetic peptide; also called phosphorylated Trp-Asp-Thr peptide

binding result [3]: no binding
B3: PIPKIγ-W (enzyme)
chain: MELEVPDEAESAEAGAVTAEAAWSAESGAAAGMTQKKAGLAEAPLVTGQPGPGHGKKLGHRGVDASGETTYKKTTSSTLKGAIQLGIGYTVGNLSSKPERDVLMQDFYVMESIFFPSEGSNFTPAHHFQDFRFKTYAPVAFRYFRELFGIRPDDYLYSLCNEPLIELSNPGASGSVFYVTSDDEFIIKTVMHKEAEFLQKLLPGYYMNLNQNPRTLLPKFYGLYCVQSGGKNIRVVVMNNVLPRVVKMHLKFDLKGSTYKRRASKKEKEKSLPTYKDLDFMQDMPEGLLLDSDTFGALVKTLQRDCLVLESFKIMDYSLLLGVHNIDQQERERQAEGAQSKADEKRPVAQKALYSTAMESIQGGAARGEAIETDDTMGGIPAVNGRGERLLLHIGIIDILQSYRFIKKLEHTWKALVHDGDTVSVHRPSFYAERFFKFMSSTVFRKSSSLKSSPSKKGRGALLAVKPLGPTAAFSASQIPSEREDVQYDLRGARSYPTLEDEGRPDLLPCTPPSFEEATTASIATTLSSTSLSIPERSPSDTSEQPRYRRRTQSSGQDGRPQEEPHAEDLQKITVQVEPVCGVGVVPKEEGAGVEVPPCGASAAASVEIDAASQASEPASQASDEEDAPSTDIYFPTDERS
notes: The text says only that it lacks both Tyr644 and Tyr649; The end at Trp642 is inferred from the name; also called tail-truncation mutant of PIPKIγ661 lacking Tyr644 and Tyr649

binding result [4]: binds
B4: PIPKIγ661 peptide PN (peptide)
peptide: CDERSWVYSPLHYSAR
notes: Synthetic peptide with an added N-terminal Cys; also called non-phosphorylated peptide; unphosphorylated peptide

fold higher affinity than the non-phosphorylated peptide [1]: 20 fold
B5: PIPKIγ661 peptide pY649 (peptide)
peptide: CDERSWVYSPLH[pY]SAR
notes: Synthetic peptide with an added N-terminal Cys

binding result [5]: no binding
binding result [6]: no binding
binding result [7]: binds
B6: Haemagglutinin (HA)-tagged PIPKIγ661 (enzyme, not shown: small tags and cut ends)
chain: MELEVPDEAESAEAGAVTAEAAWSAESGAAAGMTQKKAGLAEAPLVTGQPGPGHGKKLGHRGVDASGETTYKKTTSSTLKGAIQLGIGYTVGNLSSKPERDVLMQDFYVMESIFFPSEGSNFTPAHHFQDFRFKTYAPVAFRYFRELFGIRPDDYLYSLCNEPLIELSNPGASGSVFYVTSDDEFIIKTVMHKEAEFLQKLLPGYYMNLNQNPRTLLPKFYGLYCVQSGGKNIRVVVMNNVLPRVVKMHLKFDLKGSTYKRRASKKEKEKSLPTYKDLDFMQDMPEGLLLDSDTFGALVKTLQRDCLVLESFKIMDYSLLLGVHNIDQQERERQAEGAQSKADEKRPVAQKALYSTAMESIQGGAARGEAIETDDTMGGIPAVNGRGERLLLHIGIIDILQSYRFIKKLEHTWKALVHDGDTVSVHRPSFYAERFFKFMSSTVFRKSSSLKSSPSKKGRGALLAVKPLGPTAAFSASQIPSEREDVQYDLRGARSYPTLEDEGRPDLLPCTPPSFEEATTASIATTLSSTSLSIPERSPSDTSEQPRYRRRTQSSGQDGRPQEEPHAEDLQKITVQVEPVCGVGVVPKEEGAGVEVPPCGASAAASVEIDAASQASEPASQASDEEDAPSTDIYFPTDERSWVYSPLHYSARPASDGESDT
notes: tyrosine phosphorylated in cells to an extent that depends on the conditions; also called Type I phosphatidylinositol phosphate kinase isoform γ661; HA-PIPKIγ661

binding result [8]: no binding
B7: PIPKIα/γ635 chimera (c-Myc-tagged) (enzyme, not shown: small tags and cut ends)
chain: MASASSGPSSSVGFSSFDPAVPSCTLSSAASGIKRPMASEVLEARQDSYISLVPYASGMPIKKIGHRSVDSSGETTYKKTTSSALKGAIQLGITHTVGSLSTKPERDVLMQDFYVVESIFFPSEGSNLTPAHHYNDFRFKTYAPVAFRYFRELFGIRPDDYLYSLCSEPLIELCSSGASGSLFYVSSDDEFIIKTVQHKEAEFLQKLLPGYYMNLNQNPRTLLPKFYGLYCVQAGGKNIRIVVMNNLLPRSVKMHIKYDLKGSTYKRRASQKEREKPLPTFKDLDFLQDIPDGLFLDADMYNALCKTLQRDCLVLQSFKIMDYSLLMSIHNIDHAQREPLSSETQYSVDTRRPAPQKALYSTAMESIQGEARRGGTMETDDHMGGIPARNSKGERLLLYIGIIDILQSYRFVKKLEHSWKALVHDGDTVSVHRPGFYAERFQRFEDVQYDLRGARSYPTLEDEGRPDLLPCTPPSFEEATTASIATTLSSTSLSIPERSPSDTSEQPRYRRRTQSSGQDGRPQEEPHAEDLQKITVQVEPVCGVGVVPKEEGAGVEVPPCGASAAASVEIDAASQASEPASQASDEEDAPSTDIYF
notes: range 1-444

fold higher affinity than the non-phosphorylated peptide [1]: 20 fold
B8: PIPKIγ661 peptide pY644 (peptide)
peptide: CDERSWV[pY]SPLHYSAR
notes: as for B5

binding result [2]: binds
B9: β1-integrin tail peptide β1InpY (peptide)
peptide: CMNAKWDTGENPI[pY]KSA
modifications: not fully specified; printed as Cys-Met-Asn-Ala-Lys-Trp-Asp-*Thr-Gly-Glu-Asn-Pro-Ile-*Tyr-Lys-Ser-Ala
notes: also called phosphorylated Asn-Pro-Ile-Tyr peptide
